In the Human Domainome abundance scans (Beltran et al. 2025):

B1: Poly(rC)-binding protein 1, residues 278 to 350; numbered along this chain, Q15365 (parent)
chain: TQTTHELTIPNNLIGCIIGRQGANINEIRQMSGAQIKIANPVEGSSGRQVTITGSAASISLAQYLINARLSSE
B2: Membrane-associated guanylate kinase, WW and PDZ domain-containing protein 2, residues 296 to 340; numbered along this chain, Q86UL8 (parent)
chain: EDNEEPDPLPDNWEMAYTEKGEVYFIDHNTKTTSWLDPRLAKKAK

Variants of: B1
Assay: abundance fitness (aPCA) (normalised: wild type 0, dead -1); higher = more abundant; growth selection in yeast, the domain comes from the species named
Settings: Homo sapiens

Abundance fitness of substitutions, site by site:
S71: F -0.21 | G -0.062 | L -0.184 | K -0.03 | T -0.092 | Q -0.194 | M 0.105 | P 0.024 | R -0.056 | Y -0.258 | W -0.195 | H -0.371 | V -0.14 | I -0.434
S72: G -0.031 | R 0.123 | D -0.107 | Q -0.401 | I -0.448 | E 0.222 | T 0.222 | H -0.07 | Y -0.152 | P -0.562 | A -0.039 | K -0.072 | C -0.052 | L -0.114 | N 0.161 | V -0.072 | M -0.058
E73: L -0.004 | C -0.14 | M 0.245 | V 0.182 | A 0.078 | S 0.302 | P -0.161 | T -0.03 | G -0.016 | R -0.019 | D 0.212 | F 0.315 | W -0.325

Variants of: B2
Assay: as above
Settings: Homo sapiens

Abundance fitness: each site, then its substitutions
G21: F -0.33 | P -0.709 | M -0.152 | W -0.593 | K -0.163 | L -0.329 | Y -0.337 | R -0.174 | D -0.169 | I -0.865 | S -0.208 | H -0.081 | C -0.26 | E -0.14 | V -0.975 | Q -0.047
N12: G 0.088 | W -0.271 | E -0.303 | S -0.199 | M -0.292 | R -0.044 | D -0.136 | V -0.703 | T -0.224 | C -0.163
Y24: L -0.557 | R -0.86 | T -0.872 | N -1.08 | V -0.598 | G -0.816 | W -0.568 | S -0.703 | P -1.07 | Q -0.809 | C -0.546 | D -0.618 | A -0.664
E14: L -0.561 | W -1.04 | Q 0.032 | N -0.241 | T -0.162 | D -0.097 | R -0.415 | V -0.264 | F -0.705 | A -0.47 | S -0.083
D11: H -0.029 | N -0.011 | M -0.015 | G -0.096 | E 0.033 | A 0.007 | W -0.074 | K -0.04 | S 0.421 | R 0.032 | L 0.073 | P -0.099 | Q 0.091 | V -0.064 | T 0.042
K20: C -0.009 | A -0.02 | G -0.011 | V -0.075 | L -0.078 | R -0.032 | T -0.063 | W -0.267 | Q 0.018 | E 0.027 | D -0.022 | M -0.004 | I -0.12 | P -0.353 | S 0.002
P8: A -0.014 | Y -0.228 | I -0.156 | E -0.069 | T -0.035 | L 0.021 | H -0.105 | G -0.03 | M 0.019 | S -0.056 | R 0.052 | D -0.121
T18: C -0.454 | A -0.308 | Y -0.93 | N -0.382 | I -0.997 | P -1.08 | G -0.354 | E -0.574 | K -0.476 | L -0.514 | W -0.725 | Q -0.849 | S -0.048 | F -0.953 | R -0.91
P10: I -0.637 | H -0.614 | Y -0.508 | A -0.528 | L -0.449 | D -0.341 | N -0.465 | G -0.436 | K -0.498 | R -0.532 | W -0.469 | C -0.654 | M -0.166 | Q -0.469 | T -0.468 | V -0.54 | S -0.47 | F -0.615 | E -0.376
D7: L 0.04 | V 0.134 | A 0.185 | E -0.008 | W 0.01 | G 0.104 | R 0.044 | S 0.04 | Q 0.054
Y17: I 0.017 | S -0.03 | C 0.004 | F -0.029 | P -0.828 | T -0.039 | K -0.048 | H 0.066 | W 0.021 | N -0.042 | E -0.42 | L 0.024 | A -0.025 | D -0.355 | G -0.349 | R 0.049
E19: W -0.319 | S -0.021 | K -0.031 | G -0.107 | A 0.054 | V -0.079 | R -0.104 | P -0.013 | D -0.025 | T 0.018 | L -0.091 | N 0.031 | Q 0.02 | I -0.117
V23: G -0.088 | W -0.295 | Q 0.14 | P -0.038 | E -0.038 | L -0.062
E22: K -0.234 | Q -0.084 | L -0.321 | A -0.228 | F -0.645 | I -0.517 | Y -0.404 | N -0.314 | G -0.359 | M -0.314 | C -0.377 | D -0.091 | R -0.409 | S -0.227 | P -0.825 | W -0.551 | V -0.325 | T -0.295
W13: L -0.385 | S -0.556 | R -0.642 | V -0.32 | G -0.787
N3: M 0.083 | Y 0.037 | Q 0.055 | V -0.042 | C -0.031 | R 0.157 | L 0.009 | P -0.109 | H 0.058 | A -0.099 | F -0.029 | E -0.173 | S 0.021 | G -0.081 | D -0.258 | W 0.059
E4: G 0.1 | A 0.016 | P 0.138 | R 0.109 | S 0.078 | Q 0.306 | V 0.027 | C -0.005 | L 0.03
E1: M -0.067 | L -0.023 | G 0.009 | H -0.109 | K 0.058 | Y 0.094 | I -1.23 | R 0.128 | P 0 | S -0.154 | V 0.035
A16: W -0.598 | C -0.274 | T -0.335 | E -0.239 | D -0.398 | V -0.271 | K -0.119 | Y -0.432 | G -0.109 | M -0.254 | R -0.127 | L -0.337 | I -0.529 | F -0.709 | S 0.002
D2: E -0.131 | A 0.125 | S 0.068 | L 0.072 | W -0.029 | K 0.116 | R 0.05 | P -0.01 | N 0.072 | C 0.256 | Y 0.063 | V 0.074 | Q 0.08
F25: V -1.05 | K -0.637 | L -0.896 | R -0.715 | S -0.777 | N -0.756 | E -0.661 | T -0.839 | G -0.75
P6: E -0.138 | I -0.088 | L 0.014 | N -0.025 | R 0.029 | H 0.091 | Y -0.017 | V 0.034 | W 0.043 | D -0.266 | S 0.003 | C -0.081 | A -0.001 | G -0.004
M15: L -0.026 | P -0.308 | H -0.428 | C -0.127 | R -0.106 | G -0.459 | V -0.121 | W -0.198
L9: S -0.453
